Results from the DeepSol protein solubility set.

assay: soluble on expression in E. coli; label from the status in PepcDB or PDB records

Sequence	soluble on expression in E. coli
MGSDKIHHHHHHMTKHMTMKTPPIVSRQEWDAAREKMLVKEKATLRAKDALAAERRRMPWMEVDKAYVFEGPNGKASLLDLFEGRRQLIVYRAFFEPGVYGWPDHACRGCSLGADQVGHLAHLNARNTTLAYASRAPQADIVRLKARMGWEMPWYTITDSFDKDFGVDEWHGHNVFIHDGDRVFRTYLINSRGDEQMGTVWSYLDATPLGRQEIWEDSPEGYPQTPLYSWWNWHDNYEAGADKKWAEVAAAGEAAFRDKGE	not soluble
MGSDKIHHHHHHMTKHQNFIETKEYKRFAEFCDACIKYQYIGICYGQPGVGKTLSSRYYTNWNTIEKQVNHRGWEDLASKTTDDILSVNKIFYTAPAEKQTRLSNDLYSISASIDLGQKLHIVNKYGHDHSKHYSDMFKYIDLIIVDEIDRLKVQHLEQLRAIYDEHNLAMIFIGMPGIEKKLSRYPQLYSRIGFAHEFDNLSKDETHHILEYKWQDLGFDLKLEDFTDYEAITTIIKITKGNFRLIHRLFAQIDRIMDINGLDKISTEVVETARDSLVIGIR	not soluble
MGSDKIHHHHHHMTKPLINLVHANGFPAGSYKTFLQEFDNDFRTIAHNQFGHNVLYPIHNNWQHLVTELVEFIKKQDEKVICVGHSFGGVISFIAACQHPELFRGLVMLDPPVVTGAFSHLLSFIKRTPYIDKLSPAGKAKTRQNQWPENTNLVDYFSQKTLFKNFDSRCLQDYASSSVVLRNKRLELSFSPAVEADIFRHLPTNLVKYKNKLTVPAKLIYGEKTQIFPIKHFVRFAKLNDIELMTLPNGGHMFPLEQPENTANMVKQIIKDW	not soluble
MGSDKIHHHHHHMTKRILEVNVDDNGYSGVYSLIKRVIENKPADYQIDLACLEPFESQQNIDYLNKLGTQVYYIGYPGNKIKKQLKYYEKLQKVVKDGNYDYVHIHGDVANKLYVTALAARKADSGVKIILQSHASDVDGSHRQLKRFIHKSLRGKLVKLADCYVSVSDLASNWMFPSIPKSQVIKIMNGVDLAAFRYDPIIRKRIRKELGLSRKHVLGHIGRFAYQKNHQYLIQVFAKVYAQDPQARLLLVGKGDLQDECKHQVHDLGLDKQVIFYGLSSNTSELFQAMDVFLLPSHFEGLPIVGVEAQAAGLPVIFSDQITSEAKMTNNVSFLPIDETSLSAWQSQVIKDLELGHRDDYDLLSRQKLDITDTVAAFMKLYNS	not soluble
MGSDKIHHHHHHMTLLDEAVVLNDGSLMPKVGVVVGNKPADDAIKAGYRLIDCSLDQKTKLKAENPQLYVEVQVPEDVITRDDFKKIRQDIIDHHADLCLLKLSDNKEKNGQIWQELEQLKIQGWIKNIGVINISVDALNELLNHTQVRPCVAQISYEDQGLINLARENRIQVEIPVHGDINALAEIASHYGTSSVELVMRYFSQKGIVPLFEIEDVVENPRINFTINAEDLATIGQLFAQK	not soluble
MGSDKIHHHHHHMTLPIDTPAVLVDLNVAEANVRAFQSYCDRHSLKMRPHIKTHKLPQLAEYQIAQGAIGITCQKITEAEAMVAGGDMRDILITYNILGAEKVARLRALSERVALSVVADNLTVVEGLSAGFAGANKPLPVLVECNTGADRCGVETPEAALALAQAIDAAPGLKFAGLMTYPPVGGAAKVTTWLAEAKARIEATDLTVEVISSGGSPDMWQAHEMPLATEYRVGTYVYNDRSLVTRGICTWDDCALTVLATVVSTPSATRAVIDAGSKVLTSDLLGLEGYGHVLGYPDFMIDQLSEEHGRITSAQPTGLRVGDQVRIVPNHACVVANMLDHITLMRAEEVAGQETVAARGQVW	not soluble
MGSDKIHHHHHHMTMTNTPRQDSPFEKPVRVRAGFSLTFDVPYATPMIFVVQPQDRLSPTGTRQRIIDQRPLAAAEGIHTYTDTHGNLIWRTVAQPGEFTIGHDLIAEIERRPDPQLPGLRKMMVEELPDDVLQYLLPSRYVDSDLVSAEAWERFGNVQGGWAQVQAVCDYLFDTCVYGYGSNSTTTASQALGSGRAVCRDFAHMGVAFCRALNIPARYVCGYMPDIDYPPDPVPMDFHAWFEAFIDGEWRTFDARHNIPRTGRVLIAQGRDASDVAFTTSFGSAKLVNMKVWADETDFDNTLDIAPNPRIF	not soluble
MGSDKIHHHHHHMTNEQDPKQNHLLSVLPEAEWARISPHLVRIDMPLGQVIYESGDRLHHVYFPTTSIVSLLYVMEDGSSAEIAIVGNEGLIGIALFMGGETTPNRAIVQSAGEAYRLDARILKQEFHRAGPVQRLLLRYTQALITQMAQTAVCNRHHSIDQQLCRWLLLSLDRLPSNELRMTQELIANMLGVRRSGVTEAALKLQDAGLIRYSHGHIEVLDRPGLEKRVCECYNVVKQEFDRLLPDLKAL	not soluble
MGSDKIHHHHHHMTNGRILFIREREFARSNVINYGMALVATAASKAFSVRAIDNNGLYRLYSHDDIAAEVEHFRPDVIGLSIITANALTSYETAEMLKRRFPDIPILAGGLHVSHQVGEALESGIDYVVRGEADLTIVPLLSALVEARDRGMPPDFTGIAGVSHGRGEAFVDGGNATLPLNLDEHSDVDFGLYDLGDFYRHPRDSLAIGSVLTQRGCPFRCTFCSDQYLSQSVRYRSIARSVDEIEDKLDRFGVNIFNIRDADFTMHNERVVEFCNELIRRGLHNRINLTIETDSFRVIPRDTLALMKQSGFSSIGFGIERLTPEIQRRIKKNISRSRIMENLKNCRELGFVISVHCLIGFSFDTMEDIAREQALFDELADQYVDIVSASIVVACPGTSEFSAVPPERSSWYLNPSAFPSRRPLYQVVRRFQYDPRHVPIYDFPPGMMERMMDFRDHFRKKTIGKRGRPLLWAYLLMLQIARLSEALYAASPRLERATFGWTLDWLETLNAIFTKLWAKRNDDRVNANHSCGQTPQP	not soluble
MGSDKIHHHHHHMTNKYEEFKTYLKKIGSGEFTGKSLTREETKSALMLMLKEEASAAQIGGFMIAHRIRRPIPEELAGMIDAYIELGPKIQSPSNQRQPIFFGMPFDGRKKTAPIYPLTTLLLLTQKQPVILHGGSRMPVKYGVTHNELFQALGINLTGLSIEQLQSFFNHNYLALIHQPDHFPLAENLIPYRDQIGKRPPLASMELIWTCHQGSHLHISGYVHSPTEERHWKTLELMGEQNVITIKGLEGGIDLSISRSSTIGQYKNQHGTRTVFHPKDYECSGKDIEWSDITEWKKFALQALNGEGPLTKALEWNAGIYFFYAGISSDIKEGINKAKEVINSGFALKQLEKLIHWSDENIDS	not soluble
MGSDKIHHHHHHMTNLLSVRDLSIALCQGQEQRYILEKVTFEIKEGETVALVGESGSGKSVTALSILQLLPFLKTLYQSGEILFNDKDLLKQKEEDLRKVRGKDIAMIFQEPMTALNPLHNVERQIGEVLKMHSDMTNQSLRAHIIDLLTQVGIHEPQKRLGSFPHELSGGQRQRVMIAMALANNPRLLIADEPTTALDVTVQARILELLVHLKKQNNMSMLFITHNLAIVRCIADRVYVMRKGKIVESAPIDQLFANAQKPYTKQLLAAEPKGYPLQADKSAPILMQGKKVRVWFPIKKGLLRRTKGYIKAVQDMDVTIRVGQTLGVVGESGSGKTTLGLSLIRMLSSKGQIIFDDIDISNFTFKKMRSLRRHIQIVFQDPFGSLSPRMSVSEIIAEGLSIHEPKLSYSERNDRVIEALHEVNLDPSTRYRYPHEFSGGQRQRIALARAIILKPRFIMLDEPTSSLDVSVQAQIISLLLHLQKKYHLGYLFISHDLKVIKALAHEVIVMRNGEMVEYGSADRIFSCPQNTYTQSLMAAAFALESDRL	not soluble
MGSDKIHHHHHHMTNVGRPIETHAITVGQGSDARSIAALVRAPAQDERPTCIWLGGYRSDMTGTKALEMDDLAASLGVGAIRFDYSGHGASGGAFRDGTISRWLEEALAVLDHFKPEKAILVGSSMGGWIALRLIQELKARHDNPTQVSGMVLIAPAPDFTSDLIEPLLGDRERAELAENGYFEEVSEYSPEPNIFTRALMEDGRANRVMAGMIDTGCPVHILQGMADPDVPYQHALKLVEHLPADDVVLTLVRDGDHRLSRPQDIDRMRNAIRAMIEPRP	not soluble
